According to patent US20240272170A1 (QUANTUM SI, published 2024):
Blank lines part the entries; values can stand above or below the binder they belong to. Non-standard residues stand in square brackets, D forms with d. No end group written: not given here. *: point of attachment. FITC = O=C1OC2(c3ccc(O)cc3Oc3cc(O)ccc32)c2ccc(NC(=S)*)cc21; Lys(N3) = [N-]=[N+]=NCCCC[C@H](N)C(=O)O; pT = C[C@@H](OP(=O)(O)O)[C@H](N)C(=O)O; Met(O) = CS(=O)CC[C@H](N)C(=O)O; Cit = NC(=O)NCCC[C@H](N)C(=O)O

Key:
[1] = molecular target: T1, target peptide Met-Ala-Lys-Leu (MAKL); assay: purified protein:peptide complex, X-ray crystallography
T1 peptide: MAKL

[2] = molecular target: T2, target peptide Ala-Ala-Lys-Leu (AAKL); assay: as above
T2 peptide: AAKL

[3] = molecular target: T3, labeled peptide X…-FITC with N-terminal leucine (FITC on the C-terminal Lys); assay: fluorescence polarization titration, recognizer 0-5000 nM, labeled peptide fixed
T3 construct: the sentence itself names only the N-terminal residue; also called LA peptide
Experimental: (§1) Binding affinity was measured by polarization using a labeled peptide. The polarization response and total intensity measurements were carried out at 20° C. on a microplate fluorometer with 480 nm excitation and 530 nm emission. […] Multiple analyses were performed at increasing recognizer concentration at a fixed concentration of a target peptide to obtain a titration curve. An equilibrium polarization response at each concentration was plotted and fit to calculate the KD.

[4] = molecular target: T4, labeled peptide XAKLDEESILKQK-FITC with N-terminal isoleucine; assay: as above
T4 construct: also called IA peptide
T4 peptide: IAKLDEESILKQK(FITC)
Experimental: as §1

[5] = molecular target: T5, labeled peptide XAKLDEESILKQK-FITC with N-terminal methionine; assay: fluorescence polarization titration, FITC peptide (FIG. 9D)
T5 construct: also called MA peptide
T5 peptide: MAKLDEESILKQK(FITC)
Experimental: as §1

[6] = molecular target: T6, … after cleavage to N-terminal leucine (LIFAYPDDD) (not fully specified (C-terminus); also: C-terminal azidolysine linked to DNA-streptavidin); assay: single-molecule dynamic sequencing on chip
T6 construct: N-terminus exposed by aminopeptidases
T6 peptide: LIFAYPDDD

[7] = molecular target: T7, synthetic peptide LRLAFAYPDDDK (not fully specified (residue 12)); assay: single-molecule dynamic sequencing on chip
T7 construct: also called QP707
T7 peptide: LRLAFAYPDDDK-NH2

[8] = molecular target: T8, … after cleavage to N-terminal leucine (LVFAYPDDD) (not fully specified (C-terminus); also: C-terminal azidolysine linked to DNA-streptavidin); assay: single-molecule dynamic sequencing on chip
T8 construct: N-terminus exposed by aminopeptidases
T8 peptide: LVFAYPDDD

[9] = molecular target: T9, … after cleavage to N-terminal leucine (LMFAYPDDD) (not fully specified (C-terminus); also: C-terminal azidolysine linked to DNA-streptavidin); assay: single-molecule dynamic sequencing on chip
T9 construct: first population of traces, methionine not oxidized
T9 peptide: LMFAYPDDD

[10] = molecular target: T10, synthetic peptide LCitLAFAYPDDDK; assay: single-molecule dynamic sequencing on chip
T10 construct: also called QP789
T10 peptide: L[Cit]LAFAYPDDDK

[11] = molecular target: T11, … after cleavage to N-terminal leucine (LAFAYPDDD) (not fully specified (C-terminus); also: C-terminal azidolysine linked to DNA-streptavidin); assay: single-molecule dynamic sequencing on chip
T11 construct: N-terminus exposed by aminopeptidases
T11 peptide: LAFAYPDDD

[12] = molecular target: T12, … after cleavage to N-terminal leucine (LTFIAYPDDD); assay: single-molecule dynamic sequencing on chip
T12 construct: N-terminus exposed by aminopeptidases
T12 peptide: LTFIAYPDDD

[13] = molecular target: T13, RLMoFAYPDDD after cleavage to N-terminal leucine (LMoFAYPDDD) (not fully specified (C-terminus); printed as LMoFAYPDDD; also: C-terminal azidoLys linked to DNA-streptavidin); assay: single-molecule dynamic sequencing on chip
T13 construct: second population of traces, methionine oxidized
T13 peptide: L[Met(O)]FAYPDDD

[14] = molecular target: T14, RLpTFIAYPDDD after cleavage to N-terminal leucine (LpTFIAYPDDD); assay: single-molecule dynamic sequencing on chip
T14 construct: N-terminus exposed by aminopeptidases
T14 peptide: L[pT]FIAYPDDD[Lys(N3)]

[15] = molecular target: T15, labeled peptide X…-FITC with N-terminal valine (FITC on the C-terminal Lys); assay: fluorescence polarization titration, recognizer 0-4000 nM, labeled peptide fixed
T15 construct: also called VA peptide; valine peptide
Experimental: as §1

[16] = molecular target: peptide with N-terminal AK (lysine peptide of Example 12); assay: single-molecule dynamic sequencing on chip
[17] = molecular target: peptide with N-terminal AK{acetyl} (acetyl-lysine peptide of Example 12); assay: single-molecule dynamic sequencing on chip

binding result [1]: binds
binding result [2]: binds
Kd [3]: 55 nM
Kd [4]: 68 nM
Kd [5]: 947 nM
median pulse duration (PD) [6]: 2.22 s
median pulse duration (PD) [7]: 0.43 s
median pulse duration (PD) [8]: 4.21 s
median pulse duration (PD) [9]: 0.86 s
median pulse duration (PD) [10]: 0.78 s
median pulse duration (PD) [11]: 1.29 s
RS mean pulse duration (PD) [12]: 1.2 s
median pulse duration (PD) [13]: 0.35 s
RS mean pulse duration (PD) [14]: 0.3 s
Kd [15]: 144 nM
B1: PS961 (designed binder)
chain: MPTAASATESAIEDTPAPARPEVDGRTKPKRQPRYHVVLWDDDDHTYQYVVVMLRSLFGHPPSRGYRMAKEMDTQGRVIVLTTTREHAELKRDQIHAFGRDRLLARSKGSMKASIEAEE
notes: PS557 with N41D, Q55R, E63S, L68M, V72M, Y100R; His/biotinylation tag of the assay construct is not specified; also called Planctomycetes ClpS variant

RS mean pulse duration (PD) [16]: 1.3 s
RS mean pulse duration (PD) [17]: 2.2 s
B2: PS1165 (other)
chain: MGLENSLETLRFSISNLSMQTHAARMRTFMYWPSSVPVQPEQLASAGFYYVGRNDDVKCFCCDGGLRCWESGDDPWVEHAKWFPRCEFLIRMKGQEFVDEIQGRYPHLLEQLLSG
notes: alanine recognizer
